Source: patent publication US20060257938A1, “Method of screening for drugs that block ligand binding to a lipid binding protein” (priority 2005, published 2006)
Where “and” joins values, the source holds several entries; their conditions need not be identical. Identical values can stand only once.

B1: 93L, 72A (protein, listed as Rattus norvegicus)
chain: AFDGTWKVDRNENYEKFMEKMGINVVKRKLGAHDNLKLTITQEGNKFTVKESSNFRNIDVVFELGVDFAYSAADGTELTGTWTMEGNKLVGKLKRVDNGKELIAVREISGNELIQTYTYEGVEAKRIFKKE
modifications: PEPTIDE (1)...(131) wild-type rat intestinal fatty acid binding protein
B2: 104L1, 72A (protein, listed as Rattus norvegicus)
chain: AFDGTWKVDRNENYEKFMEKMGINVVKRKLGAHDNLKLTITQEGNKFTVKESSNFRNIDVVFELGVDFAYSAADGTELTGTWTMEGNKLVGKFKRVDNGKELILVREISGNELIQTYTYEGVEAKRIFKKE
modifications: PEPTIDE (1)...(131) wild-type rat intestinal fatty acid binding protein
B3: 106F1, 72A (protein, listed as Rattus norvegicus)
chain: AFDGTWKVDRNENYEKFMEKMGINVVKRKLGAHDNLKLTITQEGNKFTVKESSNFRNIDVVFELGVDFAYSAADGTELTGTWTMEGNKLVGKFKRVDNGKELIAVFEISGNELIQTYTYEGVEAKRIFKKE
modifications: PEPTIDE (1)...(131) wild-type rat intestinal fatty acid binding protein
B4: 104R1, 72A (protein, listed as Rattus norvegicus)
chain: AFDGTWKVDRNENYEKFMEKMGINVVKRKLGAHDNLKLTITQEGNKFTVKESSNFRNIDVVFELGVDFAYSAADGTELTGTWTMEGNKLVGKFKRVDNGKELIRVREISGNELIQTYTYEGVEAKRIFKKE
modifications: PEPTIDE (1)...(131) wild-type rat intestinal fatty acid binding protein
B5: 104R, 72A (protein, listed as Rattus norvegicus)
chain: AFDGTWKVDRNENYEKFMEKMGINVVKRKLGAHDNLKLTITQEGNKFTVKESSNFRNIDVVFELGVDFAYSAADGTELTGTWTMEGNKLVGKFKRVDNGKELIRVREISGNELIQTYTYEGVEAKRIFKKE
modifications: PEPTIDE (1)...(131) wild-type rat intestinal fatty acid binding protein
B6: 104N1, 72A (protein, listed as Rattus norvegicus)
chain: AFDGTWKVDRNENYEKFMEKMGINVVKRKLGAHDNLKLTITQEGNKFTVKESSNFRNIDVVFELGVDFAYSAADGTELTGTWTMEGNKLVGKFKRVDNGKELINVREISGNELIQTYTYEGVEAKRIFKKE
modifications: PEPTIDE (1)...(131) wild-type rat intestinal fatty acid binding protein
B7: 104T1, 72A (protein, listed as Rattus norvegicus)
chain: AFDGTWKVDRNENYEKFMEKMGINVVKRKLGAHDNLKLTITQEGNKFTVKESSNFRNIDVVFELGVDFAYSAADGTELTGTWTMEGNKLVGKFKRVDNGKELITVREISGNELIQTYTYEGVEAKRIFKKE
modifications: PEPTIDE (1)...(131) wild-type rat intestinal fatty acid binding protein
B8: 106D3, 72A (protein, listed as Rattus norvegicus)
chain: AFDGTWKVDRNENYEKFMEKMGINVVKRKLGAHDNLKLTITQEGNKFTVKESSNFRNIDVVFELGVDFAYSAADGTELTGTWTMEGNKLVGKFKRVDNGKELIAVDEISGNELIQTYTYEGVEAKRIFKKE
modifications: PEPTIDE (1)...(131) wild-type rat intestinal fatty acid binding protein
B9: 104S2, 72A (protein, listed as Rattus norvegicus)
chain: AFDGTWKVDRNENYEKFMEKMGINVVKRKLGAHDNLKLTITQEGNKFTVKESSNFRNIDVVFELGVDFAYSAADGTELTGTWTMEGNKLVGKFKRVDNGKELISVREISGNELIQTYTYEGVEAKRIFKKE
modifications: PEPTIDE (1)...(131) wild-type rat intestinal fatty acid binding protein
B10: 106C2, 72A (protein, listed as Rattus norvegicus)
chain: AFDGTWKVDRNENYEKFMEKMGINVVKRKLGAHDNLKLTITQEGNKFTVKESSNFRNIDVVFELGVDFAYSAADGTELTGTWTMEGNKLVGKFKRVDNGKELIAVCEISGNELIQTYTYEGVEAKRIFKKE
modifications: PEPTIDE (1)...(131) wild-type rat intestinal fatty acid binding protein
B11: 106H2, 72A (protein, listed as Rattus norvegicus)
chain: AFDGTWKVDRNENYEKFMEKMGINVVKRKLGAHDNLKLTITQEGNKFTVKESSNFRNIDVVFELGVDFAYSAADGTELTGTWTMEGNKLVGKFKRVDNGKELIAVHEISGNELIQTYTYEGVEAKRIFKKE
modifications: PEPTIDE (1)...(131) wild-type rat intestinal fatty acid binding protein
B12: 106L3, 72A (protein, listed as Rattus norvegicus)
chain: AFDGTWKVDRNENYEKFMEKMGINVVKRKLGAHDNLKLTITQEGNKFTVKESSNFRNIDVVFELGVDFAYSAADGTELTGTWTMEGNKLVGKFKRVDNGKELIAVLEISGNELIQTYTYEGVEAKRIFKKE
modifications: PEPTIDE (1)...(131) wild-type rat intestinal fatty acid binding protein
B13: 106A1, 72A (protein, listed as Rattus norvegicus)
chain: AFDGTWKVDRNENYEKFMEKMGINVVKRKLGAHDNLKLTITQEGNKFTVKESSNFRNIDVVFELGVDFAYSAADGTELTGTWTMEGNKLVGKFKRVDNGKELIAVAEISGNELIQTYTYEGVEAKRIFKKE
modifications: PEPTIDE (1)...(131) wild-type rat intestinal fatty acid binding protein
B14: 104V1, 72A (protein, listed as Rattus norvegicus)
chain: AFDGTWKVDRNENYEKFMEKMGINVVKRKLGAHDNLKLTITQEGNKFTVKESSNFRNIDVVFELGVDFAYSAADGTELTGTWTMEGNKLVGKFKRVDNGKELIVVREISGNELIQTYTYEGVEAKRIFKKE
modifications: PEPTIDE (1)...(131) wild-type rat intestinal fatty acid binding protein
B15: 106I3, 72A (protein, listed as Rattus norvegicus)
chain: AFDGTWKVDRNENYEKFMEKMGINVVKRKLGAHDNLKLTITQEGNKFTVKESSNFRNIDVVFELGVDFAYSAADGTELTGTWTMEGNKLVGKFKRVDNGKELIAVIEISGNELIQTYTYEGVEAKRIFKKE
modifications: PEPTIDE (1)...(131) wild-type rat intestinal fatty acid binding protein
B16: 104Y1, 72A (protein, listed as Rattus norvegicus)
chain: AFDGTWKVDRNENYEKFMEKMGINVVKRKLGAHDNLKLTITQEGNKFTVKESSNFRNIDVVFELGVDFAYSAADGTELTGTWTMEGNKLVGKFKRVDNGKELIYVREISGNELIQTYTYEGVEAKRIFKKE
modifications: PEPTIDE (1)...(131) wild-type rat intestinal fatty acid binding protein
B17: 93M, 72A (protein, listed as Rattus norvegicus)
chain: AFDGTWKVDRNENYEKFMEKMGINVVKRKLGAHDNLKLTITQEGNKFTVKESSNFRNIDVVFELGVDFAYSAADGTELTGTWTMEGNKLVGKMKRVDNGKELIAVREISGNELIQTYTYEGVEAKRIFKKE
modifications: PEPTIDE (1)...(131) wild-type rat intestinal fatty acid binding protein

Experiments:
Assay type in all cases: binding
Conditions in all cases: response relative to ADIFAB2
[1] = Probe fluorescence ratio response to arachidonic acid relative to ADIFAB2
Summary of the method: (§1)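 Fluorescently labeled rat intestinal FABP variants were read at two emission wavelengths, near the unbound maximum (about 420 to 480 nm) and the FFA-bound maximum (about 495 to 580 nm). R = Fλ1/Fλ2 after subtracting probe-free intensity; ΔR = R+agent − R0, normalized to ADIFAB2 (rI-FABP-L72A).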

[2] = Probe fluorescence ratio response to linoleic acid relative to ADIFAB2
Summary of the method: as §1

[3] = Probe fluorescence ratio response to linolenic acid relative to ADIFAB2
Summary of the method: as §1

[4] = Probe fluorescence ratio response to palmitic acid relative to ADIFAB2
Summary of the method: as §1

[5] = Probe fluorescence ratio response to oleic acid relative to ADIFAB2
Summary of the method: as §1

| Molecule | DR/DR AA ([1]; Arachidonic acid) | DR/DR AA ([1]; arachidonic acid) | DR/DR LA [2] | DR/DR LNA [3] | DR/DR PA [4] | DR/DR OA [5] |
| --- | --- | --- | --- | --- | --- | --- |
| B1 | 0.36 | 0.680 | 1.03 and 0.670 | 0.81 and 0.680 | 0.62 and 0.560 | 1.05 and 0.770 |
| B2 |  | 0.38 | 0.39 | 0.42 | 0.31 | 0.48 |
| B3 |  | 0.75 | 0.78 | 0.71 | 0.38 | 0.78 |
| B4 |  | 1.14 | 1.22 | 1.13 | 1.00 | 1.20 |
| B5 |  | 1.18 and 1.075 | 0.93 and 0.962 | 0.96 and 0.904 | 0.52 and 0.791 | 0.88 and 0.957 |
| B6 |  | 1.14 | 0.67 | 1.06 | 0.52 | 0.71 |
| B7 |  | 1.01 | 1.16 | 1.07 | 0.99 | 1.10 |
| B8 |  | 0.66 | 0.80 | 0.77 | 0.26 | 0.64 |
| B9 |  | 1.64 | 1.71 | 1.54 | 1.57 | 1.66 |
| B10 |  | 0.17 | 0.20 | 0.22 | 0.09 | 0.22 |
| B11 |  | 0.75 | 0.78 | 0.73 | 0.33 | 0.82 |
| B12 |  | 0.84 | 0.87 | 0.84 | 0.43 | 0.87 |
| B13 |  | 0.39 | 0.51 | 0.52 | 0.16 | 0.60 |
| B14 |  | 0.63 | 0.73 | 0.73 | 0.63 | 0.76 |
| B15 |  | 0.59 | 0.68 | 0.71 | 0.29 | 0.72 |
| B16 |  | 0.36 | 0.26 | 0.28 | 0.14 | 0.24 |
| B17 | 0.93 |  | 1.28 | 1.19 | 0.75 | 1.24 |
